From paper PMC7396449, “Biochemical determinants of the IGFBP‐3–hyaluronan interaction” (FEBS Open Bio, 2020) come the findings set out here.

One assay addresses T1, IGFBP‐3 Glycosylated (Homo sapiens, UniProt P17936).
T1 construct: We therefore elected to use the full‐length IGFBP‐3 protein to examine the effect of glycosylation; His; purchased Speed BioSystems YCP1009
Description: ELISA binding of biotin-HA or biotin-HN to immobilized glycosylated IGFBP-3. As to conditions: glycosylated IGFBP-3 (50 nM) coated; 0–2 μM biotin-ligand, overnight 4 °C; mean ± SD of three independent experiments in triplicate; read-out: concentration of biotin-HA or biotin-HN that produced 50% of maximum binding. The method, then:
(§1) ELISA was conducted as we reported previously. Nunc MaxiSorp 96‐well flat‐bottom plates (Thermo Fisher, Waltham, MA, USA) were coated with samples as indicated. The plates were incubated overnight at 4 °C on a shaker to allow binding of the samples to the plate wells. After the incubation, the wells were washed 4× with TBST, filled with 400 µL blocking buffer (110 mM KCl, 5 mM NaHCO3, 5 mM MgCl2, 1 mM EGTA, 0.1 mM CaCl2, 20 mM HEPES, 1% BSA, pH 7.4), and incubated overnight at 4 °C on a shaker. The wells were then washed 4× with TBST, and 100 µL of sample at the desired concentration was added to each well before incubating overnight at 4 °C on a shaker. TBST was then used to wash the wells 4× before proceeding in one of two ways: (a) Biotinylated samples were analyzed by adding 100 µL streptavidin–HRP conjugate in TBST (1 : 2500 dilution) to the samples before incubating for 3 h at RT on a shaker, or (b) samples without biotin were analyzed by adding 100 µL TBST containing the primary antibody at the manufacturer's recommendation and incubating for 3 h at RT on a shaker before washing 4× with TBST. […] The reaction was stopped with 100 µL 2 M H2SO4 after incubating at RT for 0.5–15 min, resulting in a yellow color change that was measured by absorbance at 450 nm. […] Statistical analysis was determined by the GRAPHPAD PRISM 8.4.2 software (San Diego, CA, USA). […]
On the technique in general: In an ELISA, binding on a coated surface is turned into a signal by an enzyme label.

For assay [1], the target named is T2, IGFBP‐3 Nonglycosylated/Reduced (Homo sapiens, UniProt P17936).
T2 construct: We therefore elected to use the full‐length IGFBP‐3 protein to examine the effect of glycosylation; purchased MyBioSource MBS142177
In words: ELISA binding of biotin-HA or biotin-HN to immobilized nonglycosylated/reduced IGFBP-3. As to conditions: nonglycosylated/reduced (TCEP, NEM) IGFBP-3 (50 nM) coated; 0–2 μM biotin-ligand, overnight 4 °C; mean ± SD of three independent experiments in triplicate; read-out: concentration of biotin-HA or biotin-HN that produced 50% of maximum binding. The method, then: as §1

The target in assay [2] is T3, IGFBP‐3 Glycosylated/Reduced (Homo sapiens, UniProt P17936).
T3 construct: We therefore elected to use the full‐length IGFBP‐3 protein to examine the effect of glycosylation; His; purchased Speed BioSystems YCP1009
Description: ELISA binding of biotin-HA or biotin-HN to immobilized glycosylated/reduced IGFBP-3. As to conditions: glycosylated/reduced (TCEP, NEM) IGFBP-3 (50 nM) coated; 0–2 μM biotin-ligand, overnight 4 °C; mean ± SD of three independent experiments in triplicate; read-out: concentration of biotin-HA or biotin-HN that produced 50% of maximum binding. As to the method: as §1

Another assay concerns the target T4, IGFBP‐3 Nonglycosylated (Homo sapiens, UniProt P17936).
T4 construct: We therefore elected to use the full‐length IGFBP‐3 protein to examine the effect of glycosylation; purchased MyBioSource MBS142177
In words: ELISA binding of biotin-HA or biotin-HN to immobilized nonglycosylated IGFBP-3. Conditions: nonglycosylated IGFBP-3 (50 nM) coated; 0–2 μM biotin-ligand, overnight 4 °C; mean ± SD of three independent experiments in triplicate; read-out: concentration of biotin-HA or biotin-HN that produced 50% of maximum binding. As to the method: as §1

T3 sequence (P17936 28-291): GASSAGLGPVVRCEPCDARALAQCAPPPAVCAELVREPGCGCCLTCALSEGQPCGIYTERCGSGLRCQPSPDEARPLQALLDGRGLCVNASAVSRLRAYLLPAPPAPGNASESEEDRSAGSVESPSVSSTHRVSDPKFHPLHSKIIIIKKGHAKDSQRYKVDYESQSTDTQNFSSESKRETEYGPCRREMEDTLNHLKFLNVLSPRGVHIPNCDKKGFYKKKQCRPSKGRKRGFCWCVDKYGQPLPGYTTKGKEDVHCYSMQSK
T4 sequence (P17936 28-291): as above
T2 sequence (P17936 28-291): as above
T1 sequence (P17936 28-291): as above

As for “Biotin‐HN: biotin-HN (B-018-26, UniProt Q8IVG9), Phoenix Pharmaceuticals; biotinylated humanin”, the EC50 turned out to be 104 ± 14 nM with IGFBP‐3 Glycosylated, 96 ± 12 nM in assay [1], 98 ± 16 nM in assay [2] and 92 ± 16 nM in the assay with IGFBP‐3 Nonglycosylated.
